Measurements as given in US20240270857A1 (CHIA TAI TIANQING PHARMACEUTICAL GROUP, published 2024).

T1: cynomolgus IL-36R overexpressed on 293T-CynoIL36R-NFκB cells (cynomolgus monkey)
T1 construct: Entry includes the signal peptide; also called monkey IL-36R
T1 chain: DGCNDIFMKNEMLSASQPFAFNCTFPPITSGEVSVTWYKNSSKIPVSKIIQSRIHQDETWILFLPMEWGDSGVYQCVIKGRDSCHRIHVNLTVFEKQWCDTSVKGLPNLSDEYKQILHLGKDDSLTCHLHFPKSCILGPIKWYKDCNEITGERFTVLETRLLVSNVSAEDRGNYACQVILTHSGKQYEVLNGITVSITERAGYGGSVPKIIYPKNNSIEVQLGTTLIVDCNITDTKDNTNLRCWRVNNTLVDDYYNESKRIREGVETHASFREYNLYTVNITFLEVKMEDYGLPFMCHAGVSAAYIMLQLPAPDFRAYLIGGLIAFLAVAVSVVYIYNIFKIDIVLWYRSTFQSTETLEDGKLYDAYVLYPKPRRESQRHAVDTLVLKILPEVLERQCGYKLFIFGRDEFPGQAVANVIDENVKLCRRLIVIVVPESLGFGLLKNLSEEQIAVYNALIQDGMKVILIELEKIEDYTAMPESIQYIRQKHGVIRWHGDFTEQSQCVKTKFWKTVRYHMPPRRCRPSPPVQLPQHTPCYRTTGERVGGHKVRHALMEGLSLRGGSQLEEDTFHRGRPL

T2: Human IL-1Rrp2/IL-1R6 protein, His Tag (ACROBiosystems, IL2-H52H6) (human, UniProt Q9HB29 20-335)
T2 construct: Bought protein; the soluble protein is likely only the extracellular part; also called hIL-36R; human IL36R antigen; not shown: His tag
T2 sequence: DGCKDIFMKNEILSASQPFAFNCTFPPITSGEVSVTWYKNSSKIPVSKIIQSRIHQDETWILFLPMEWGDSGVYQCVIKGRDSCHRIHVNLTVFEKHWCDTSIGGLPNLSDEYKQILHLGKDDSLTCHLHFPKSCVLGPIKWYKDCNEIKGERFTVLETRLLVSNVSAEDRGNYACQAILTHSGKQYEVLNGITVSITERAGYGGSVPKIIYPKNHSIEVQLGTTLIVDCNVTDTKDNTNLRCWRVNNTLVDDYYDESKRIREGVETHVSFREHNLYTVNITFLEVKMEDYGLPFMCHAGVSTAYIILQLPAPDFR


Key:
[1] = target: T1, cynomolgus IL-36R overexpressed on …; assay: FACS on 293T-CynoIL36R-NFκB cells, ratio of MFI to background MFI
Description: After the cells was washed with PBS, the cells were resuspended with 100 μL of PBS and then the fluorescence signal was detected using a flow cytometer (BD, Accuri C6). […] The ratio was the ratio of mean fluorescence intensity (MFI) of the experimental group/the background MFI, and the resulting data were analyzed using GraphPad Prism.
(§1) Affinity, binding and blocking assays for humanized antibodies hz72C1-1.1, hz72C1-1.2, hz72C1-1.3, hz72C1-2.1, hz72C1-2.2 and hz72C1-2.3 as well as hz84C4-1.1, hz84C4-1.2, hz84C4-1.3, hz84C4-1.4, hz84C4-1.5, hz84C4-2.1, hz84C4-2.2, hz84C4-2.3, hz84C4-2.4 and hz84C4-2.5 were performed according to the methods of Example 4, Example 5. Example 6, Example 7 and Example 8.

[2] = target: T2, Human IL-1Rrp2/IL-1R6 protein, His Tag …; assay: BLI (ForteBio Octet), antibody on ProA sensor, 1:1 model
Description: The affinity of anti-IL-36R antibodies to CynoIL36R-ECD mFc and human IL-1Rrp2/IL-IR6 protein, His Tag (ACROBiosystems, IL2-H52H6) was measured by a ForteBio molecular interaction instrument. […] And then the biosensor was used to bind CynoIL36R-ECD mFc or human IL-1Rrp2/IL-1R6 protein, His Tag which was diluted by a gradient (the initial concentration was 200 nM, 2-fold gradient dilution), the response signals were detected in real time using a Fortebio molecular interaction instrument (SARTORIUS, octet red 96e), and association and dissociation curves were obtained. After the completion of dissociation in each cycle, the biosensor was regenerated for the next capture; the procedure was repeated until the affinity of the different anti-IL-36R antibodies for IL-36R was determined. The resulting data were analyzed by Fortebio Data Analysis 11.0 software in a 1:1 (Langmuir) binding model to determine kₐ (kₒₙ) and kd (koff) values, and the dissociation constant KD was calculated by KD=kd/kₐ. The detection method essentially followed the manufacturer's recommendations, and more information could be found at www.fortebio.com.
as §1

[3] = target: T2, Human IL-1Rrp2/IL-1R6 protein, His Tag …; assay: ELISA, plate coated with human IL-1Rrp2/IL-1R6 His Tag, HRP-protein A/G, OD450
Description: The binding activity of anti-IL-36R antibodies to IL-36R was analyzed by ELISA using human IL-1Rrp2/IL-1R6 protein, His Tag (ACROBiosystems, IL2-H52H6) and CynoIL36R-ECD mFc (for detection of chimeric and humanized antibodies), and hIL36R-ECD hFc and CynoIL36R-ECD hFc protein (for detection of hybridoma antibodies) as antigens. A 96-well plate (Costar, 9018) was coated with 2 μg/mL antigen at 100 μL/well and incubated overnight at 4° C. After the 96-well plate was washed with a washing buffer (PBS containing 0.05% v/v Tween 20), a blocking buffer (PBS containing 2% bovine serum albumin) was added for blocking at 37° C. for 2 h. After the 96-well plate was washed with the washing buffer, 100 μL of the gradient diluted anti-IL-36R antibody of the present disclosure or the reference antibody BI655130 (the initial concentration of the antibody was 66 nM, 4-fold gradient dilution) was added to each well, and the plate was incubated at room temperature for 1 h. After the 96-well plate was washed with the washing buffer, 100 μL of horseradish peroxidase-conjugated recombinant protein A/G (TheroScientific, 32490) was added to each well, and the plate was incubated at room temperature for 1 h. After the 96-well plate was washed with the washing buffer, 100 μL of a TMB solution (Thermo, 00-4201-56) was added to each well, and the plate was incubated at room temperature for 2 min. Finally, 100 μL of a stop solution (2 N H₂SO₄) was added to each well to stop the reaction. Absorbance was read at 450 nm using a microplate reader (PE, Envision), the resulting data was analyzed using GraphPad Prism, and EC₅₀ was calculated. Binding EC₅₀ of the chimeric anti-IL-36R antibodies to hIL-36R in an ELISA assay is shown in FIG. 1. and binding EC₅₀ of the chimeric anti-IL-36R antibodies to CynoIL-36R in an ELISA assay is shown in FIG. 2. The binding of BI655130 is shown as a control, and the binding of IgG4 is shown as a negative control.

Row | Binder | EC50 [1] | Kd [2] | koff [2] | kon [2] | EC50 [3]
1 | hz72C1-1.2 (antibody, human IgG4 S228P, kappa, Humanized, human IgG4 / kappa) heavy: not shown light: DIQMTQSPSSLSASVGDRVTITCRASSNVRYMYWYQQKPGKAPKLWIYLTSNLASGVPSRFSGSGSGTSYTLTISSLQPEDFATYYCQQFTTSPYTFGQGTKLEIKRTVAAPSVFIFPPSDEQLKSGTASVVCLLNNFYPREAKVQWKVDNALQSGNSQESVTEQDSKDSTYSLSSTLTLSKADYEKHKVYACEVTHQGLSSPVTKSFNRGEC | ~4.94 nM | 0.0351 nM | 3.91e-06 s⁻¹ | 111000 M⁻¹ s⁻¹ | 5.02 nM
2 | hz72C1-2.3 (antibody, human IgG4 S228P, kappa, Humanized, human IgG4 / kappa) heavy: not shown light: DIQMTQSPSSLSASVGDRVTITCRASSNVRYMYWYQQKPGKAPKLWIYLTSNLASGVPSRFSGSGSGTSYTLTISSLQPEDFATYYCQQYTTSPYTFGQGTKLEIKRTVAAPSVFIFPPSDEQLKSGTASVVCLLNNFYPREAKVQWKVDNALQSGNSQESVTEQDSKDSTYSLSSTLTLSKADYEKHKVYACEVTHQGLSSPVTKSFNRGEC | 4.84 nM | 0.177 nM | 1.12e-05 s⁻¹ | 63300 M⁻¹ s⁻¹ | 8.9 nM
3 | hz72C1-2.1 (antibody, human IgG4 S228P, kappa, Humanized, human IgG4 / kappa) heavy: not shown light: DIQMTQSPSSLSASVGDRVTITCRASSNVRYMYWYQQKPGKAPKLWIYLTSNLASGVPSRFSGSGSGTSYTLTISSLQPEDFATYYCQQYTTSPYTFGQGTKLEIKRTVAAPSVFIFPPSDEQLKSGTASVVCLLNNFYPREAKVQWKVDNALQSGNSQESVTEQDSKDSTYSLSSTLTLSKADYEKHKVYACEVTHQGLSSPVTKSFNRGEC | 5.58 nM | 0.0111 nM | 7.81e-07 s⁻¹ | 70400 M⁻¹ s⁻¹ | 9.35 nM
4 | hz72C1-2.2 (antibody, human IgG4 S228P, kappa, Humanized, human IgG4 / kappa) heavy: not shown light: DIQMTQSPSSLSASVGDRVTITCRASSNVRYMYWYQQKPGKAPKLWIYLTSNLASGVPSRFSGSGSGTSYTLTISSLQPEDFATYYCQQYTTSPYTFGQGTKLEIKRTVAAPSVFIFPPSDEQLKSGTASVVCLLNNFYPREAKVQWKVDNALQSGNSQESVTEQDSKDSTYSLSSTLTLSKADYEKHKVYACEVTHQGLSSPVTKSFNRGEC | 7.25 nM | < 0.001 nM | < 1e-07 s⁻¹ | 62400 M⁻¹ s⁻¹ | 4.88 nM
5 | chimeric 72C1 antibody (antibody, human IgG4 S228P, kappa, Mouse variable regions on human IgG4 / kappa; also called xi72C1) heavy: not shown light: EILLTQSPAIMSATLGEKVTMSCRASSNVRYMYWYQLKSGASPKLWIYLTSNLASGVPARFSGSGSGTSYSLTISSVEAEDAATYFCQQFTTSPYTFGGGTKLEIKRTVAAPSVFIFPPSDEQLKSGTASVVCLLNNFYPREAKVQWKVDNALQSGNSQESVTEQDSKDSTYSLSSTLTLSKADYEKHKVYACEVTHQGLSSPVTKSFNRGEC |  | 0.736 nM | 4.38e-05 s⁻¹ | 59600 M⁻¹ s⁻¹ | 

Further binders by falling Kd [2], results first:

Row | EC50 [1] | Kd [2] | koff [2] | kon [2] | EC50 [3] | Binder
6 | 5.64 nM | 0.245 nM | 1.57e-05 s⁻¹ | 64100 M⁻¹ s⁻¹ | 0.764 nM | BI655130 (antibody, human IgG1, kappa, L234A L235A, also called Spesolimab) heavy: not shown light: QIVLTQSPGTLSLSPGERATMTCTASSSVSSSYFHWYQQKPGQAPRLWIYRTSRLASGVPDRFSGSGSGTDFTLTISRLEPEDAATYYCHQFHRSPLTFGAGTKLEIKRTVAAPSVFIFPPSDEQLKSGTASVVCLLNNFYPREAKVQWKVDNALQSGNSQESVTEQDSKDSTYSLSSTLTLSKADYEKHKVYACEVTHQGLSSPVTKSFNRGEC
7 | 5.21 nM | 0.16 nM | 1.81e-05 s⁻¹ | 113000 M⁻¹ s⁻¹ | 2.94 nM | hz72C1-1.1 (antibody, human IgG4 S228P, kappa, Humanized, human IgG4 / kappa; also called humanized 72C1 antibody 1.1) heavy: not shown light: DIQMTQSPSSLSASVGDRVTITCRASSNVRYMYWYQQKPGKAPKLWIYLTSNLASGVPSRFSGSGSGTSYTLTISSLQPEDFATYYCQQFTTSPYTFGQGTKLEIKRTVAAPSVFIFPPSDEQLKSGTASVVCLLNNFYPREAKVQWKVDNALQSGNSQESVTEQDSKDSTYSLSSTLTLSKADYEKHKVYACEVTHQGLSSPVTKSFNRGEC
8 | 5.76 nM | 0.0743 nM | 8.8e-06 s⁻¹ | 119000 M⁻¹ s⁻¹ | 2.86 nM | hz72C1-1.3 (antibody, human IgG4 S228P, kappa, Humanized, human IgG4 / kappa) heavy: not shown light: DIQMTQSPSSLSASVGDRVTITCRASSNVRYMYWYQQKPGKAPKLWIYLTSNLASGVPSRFSGSGSGTSYTLTISSLQPEDFATYYCQQFTTSPYTFGQGTKLEIKRTVAAPSVFIFPPSDEQLKSGTASVVCLLNNFYPREAKVQWKVDNALQSGNSQESVTEQDSKDSTYSLSSTLTLSKADYEKHKVYACEVTHQGLSSPVTKSFNRGEC
